Measurements published in paper PMC548348.

Molecular target: hnRNP A2 (recombinant) (Homo sapiens, UniProt P22626-2 1-341)
Test: UV-cross-linking EMSA, competition

GCCAAGGAGCC (ssRNA) [A2RE11]: binds.
